Our source for the Kd values is patent US20260209349A1 (IMBIORAY HANGZHOU BIOMEDICINE, published 2026).

One assay addresses Human CD33 (human, UniProt P20138 18-259). The assay can be described thus: BLI, affinity to target.
In another assay the target is T1, Human CLL1 (human, UniProt Q5QGZ9 65-265, limits assumed).
T1 construct: also called C-type lectin-like molecule 1
T1 sequence (looked up): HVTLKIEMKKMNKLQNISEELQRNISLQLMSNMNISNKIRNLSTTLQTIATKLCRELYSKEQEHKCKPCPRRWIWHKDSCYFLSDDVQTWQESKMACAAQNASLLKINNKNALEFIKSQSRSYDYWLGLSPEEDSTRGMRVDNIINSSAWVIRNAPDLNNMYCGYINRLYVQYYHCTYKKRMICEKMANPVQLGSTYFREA
As to the kind of experiment: BLI, affinity to target. Background: BLI is a label-free optical method that tracks binding on a fibre tip over time.

Sequence of Human CD33 (P20138 18-259 limits assumed): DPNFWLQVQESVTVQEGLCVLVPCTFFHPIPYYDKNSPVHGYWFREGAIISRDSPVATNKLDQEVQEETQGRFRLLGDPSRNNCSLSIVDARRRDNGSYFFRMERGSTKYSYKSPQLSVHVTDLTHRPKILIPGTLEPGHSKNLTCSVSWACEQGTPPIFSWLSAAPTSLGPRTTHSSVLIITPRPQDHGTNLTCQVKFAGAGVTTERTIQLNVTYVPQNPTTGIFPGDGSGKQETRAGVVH

B1: Anti-CD33-CLL1 bispecific antibody (bispecific antibody, human IgG1, kappa)
heavy 1: not shown
light 1: not shown
heavy 2: not shown
light 2: DIQMTQSPSSLSASVGDRVTITCRASESVDNYGISFMNWFQQKPGKAPKLLIYAASNQGSGVPSRFSGSGSGTDFTLTISSLQPDDFATYYCQQSKEVPWTFGQGTKVEIKRTVAAPSVFIFPPSDEQLKSGTASVVCLLNNFYPREAKVQWKVDNALQSGNSQESVTEQDSKDSTYSLSSTLTLSKADYEKHKVYACEVTHQGLSSPVTKSFNRGEC
notes: Copies '1' follow from this arm exchange; also called anti-CD33/CLL1 antibody
The Kd is the equilibrium constant for the complex coming apart. High values mean weaker binding, low ones tighter binding. Consider B1, for which the Kd with Human CD33 was found to be 5.5 nM; with Human CLL1, 26 nM.
